{"source": "paper doi:10.1101/2025.01.13.632879", "about": "(bioRxiv, 2025)", "proteins": {"B1": {"name": "Escherichia coli LolA P65T (natural protein, UniProt P61316 22-203, looked up)", "chain": "DAASDLKSRLDKVSSFHASFTQKVTDGSGAAVQEGQGDLWVKRTNLFNWHMTQPDESILVSDGKTLWFYNPFVEQATATWLKDATGNTPFMLIARNQSSDWQQYNIKQNGDDFVLTPKASNGNLKQFTINVGRDGTIHQFSAVEQDDQRSSYQLKSQQNGAVDAAKFTFTPPQGVTVDDQRK", "notes": "LolA of Escherichia coli; source: E. coli BL21(DE3), purified (Ni-NTA, SEC)"}}, "molecular_target": "the molecule itself", "assay": "SEC; affinity-purified protein alone; Superdex 200 Increase 10/300 GL, 100 uL of 10 mg/mL, 0.2 mL/min; 200 mM NaCl, 10 mM Tris HCl pH 7.5, 5% glycerol, 1 mM DTT; monomer and dimer peaks", "data": [{"protein": "B1", "values": [{"measurement": "stoichiometry N", "value": 2}]}]}
